Each substance was assayed against L363 antibody (anti-CD1d-α-GalCer) (assay: SPR).
“CD1d loaded with C24:1 α-GalCer (from UniProt P11609 22-297; P01887 21-119) (complex)” was tested, and the Kd was 350 nM and the kon was 142000 M⁻¹ s⁻¹. Work on “CD1d loaded with α-GalCer (from UniProt P11609 22-297; P01887 21-119) (complex)” yielded a Kd of 96.7 nM and a kon of 85700 M⁻¹ s⁻¹. “CD1d loaded with α-GluCer (from UniProt P11609 22-297; P01887 21-119) (complex)” was tested, and the Kd was 5020 nM, the koff was 0.471 s⁻¹ and the kon was 93700 M⁻¹ s⁻¹. “CD1d loaded with α-lyso-galactosylceramide (α-psychosine) (from UniProt P11609 22-297; P01887 21-119) (complex)” was tested, and the Kd was 2230 nM and the kon was 943000 M⁻¹ s⁻¹. “CD1d loaded with α-lyso-glucosylceramide (α-glucopsychosine) (from UniProt P11609 22-297; P01887 21-119) (complex)” was tested, and the Kd was 8140 nM, the koff was 0.115 s⁻¹ and the kon was 4590 M⁻¹ s⁻¹.
